In this assay the target is T1, recombinant coagulation factor VIII protein (Homo sapiens (Human), UniProt P00451 20-2351).
T1 construct: Recombinant protein isolated from a cell culture solution; also called recombinant coagulation factor FVIII; FVIII
T1 sequence: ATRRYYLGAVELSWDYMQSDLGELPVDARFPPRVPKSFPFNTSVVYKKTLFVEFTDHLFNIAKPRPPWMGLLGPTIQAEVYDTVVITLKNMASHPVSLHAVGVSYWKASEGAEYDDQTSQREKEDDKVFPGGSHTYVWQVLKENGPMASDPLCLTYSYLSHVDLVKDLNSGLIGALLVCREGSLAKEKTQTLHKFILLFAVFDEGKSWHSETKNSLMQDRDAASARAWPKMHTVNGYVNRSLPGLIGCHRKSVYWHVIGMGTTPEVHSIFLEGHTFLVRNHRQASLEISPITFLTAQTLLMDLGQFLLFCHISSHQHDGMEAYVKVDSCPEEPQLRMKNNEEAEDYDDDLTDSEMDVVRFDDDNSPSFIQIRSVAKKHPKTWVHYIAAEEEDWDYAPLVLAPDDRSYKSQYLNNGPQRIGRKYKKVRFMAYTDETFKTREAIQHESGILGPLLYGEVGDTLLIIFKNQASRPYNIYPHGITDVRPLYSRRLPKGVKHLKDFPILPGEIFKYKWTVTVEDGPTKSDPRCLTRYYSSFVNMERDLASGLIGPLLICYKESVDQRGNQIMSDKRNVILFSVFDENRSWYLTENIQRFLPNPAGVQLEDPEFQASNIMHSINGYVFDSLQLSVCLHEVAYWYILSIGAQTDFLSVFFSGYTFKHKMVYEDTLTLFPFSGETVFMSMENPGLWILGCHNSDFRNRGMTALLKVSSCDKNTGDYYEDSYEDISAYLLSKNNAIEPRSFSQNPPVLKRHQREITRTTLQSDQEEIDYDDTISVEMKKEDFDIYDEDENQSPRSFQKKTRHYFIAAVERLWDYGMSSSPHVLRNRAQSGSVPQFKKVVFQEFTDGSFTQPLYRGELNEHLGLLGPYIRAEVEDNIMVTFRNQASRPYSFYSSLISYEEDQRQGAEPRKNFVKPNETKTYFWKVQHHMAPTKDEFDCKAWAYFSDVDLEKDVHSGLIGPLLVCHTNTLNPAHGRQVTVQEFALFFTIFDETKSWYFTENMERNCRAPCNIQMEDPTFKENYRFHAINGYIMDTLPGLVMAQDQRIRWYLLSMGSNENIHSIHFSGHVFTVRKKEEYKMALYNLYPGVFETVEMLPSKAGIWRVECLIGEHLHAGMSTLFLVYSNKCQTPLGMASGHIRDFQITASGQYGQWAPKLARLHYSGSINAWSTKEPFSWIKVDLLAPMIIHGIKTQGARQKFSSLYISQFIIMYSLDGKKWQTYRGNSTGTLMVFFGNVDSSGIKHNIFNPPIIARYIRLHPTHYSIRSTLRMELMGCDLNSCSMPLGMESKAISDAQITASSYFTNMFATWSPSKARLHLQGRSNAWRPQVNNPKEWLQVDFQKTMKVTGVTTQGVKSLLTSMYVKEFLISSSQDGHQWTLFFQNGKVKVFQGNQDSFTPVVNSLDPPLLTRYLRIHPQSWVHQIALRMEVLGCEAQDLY
Kind of assay: SPR, Biacore T200, FVIII immobilised on CM5 chip, antibody as analyte, 1:1 model. The protocol: The kinetic affinity (Ka, Kd, KD) between the purified antibody protein and the recombinant coagulation factor FVIII protein through antigen-antibody reaction was measured by a SPR (surface plasmon resonance) method.
The CM5 chip was mounted on a Biacore T200 instrument, and the recombinant coagulation factor FVIII protein as a ligand was diluted in a 10 mM sodium acetate buffer (pH 5.0) and injected into a sample channel for 10 minutes for immobilization. The purified antibody protein, as the analyte, was prepared at a concentration of 2 μM by diluting with a buffer and was then serially diluted to ten concentrations (0.0039, 0.0078, 0.015, 0.031, 0.062, 0.125, 0.25, 0.5, 1, 2 μM). Association and dissociation times were set to 3 minutes and 4 minutes, respectively, and association and dissociation were measured.
BIAevaluation analysis software was used to analyze the kinetic affinity of the purified antibody protein and the recombinant coagulation factor FVIII protein. The association force, dissociation force and dissociation constant were calculated as follows by applying ten concentrations of association/dissociation data to a 1:1 kinetic binding model (A+B↔AB).
Background: In SPR one partner is held on a chip, and binding of the other changes the refractive index at the surface.

In patent US20200277401A1 (PANGEN BIOTECH, published 2020) one finds Kd, koff and kon data, which are given here for one molecule.

B1: anti-FVIII antibody (purified antibody protein produced by the ADBA1013-14 CHO cell line from the heavy and light chain genes of hybridoma clone 3F6-2-5) (antibody, mouse IgG1, V domains shown)
VH: EVKIEESGGGLVQPGGSMKLSCAASGFTFSDAWMDWVRQSPEKGLEWVAEIRSKAKNHATNYAESVKGRFTISRDDSKSRVYLQMNTLRAEDTGIYYCTNYHFWGPGTTLTVS
VL: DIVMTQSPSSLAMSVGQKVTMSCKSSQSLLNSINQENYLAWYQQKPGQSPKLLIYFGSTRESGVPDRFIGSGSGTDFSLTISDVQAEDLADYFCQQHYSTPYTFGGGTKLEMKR
modifications: N-glycan on Asparagine No. 288 of the heavy chain
notes: The full chains are in the listing under one of these numberings; The hybridoma antibody 3F6-2-5 and the recombinant CHO product are treated as one molecule (same genes); also called purified anti-FVIII antibody protein; anti-coagulation factor VIII antibody
For B1, the dissociation constant (Kd) – broadly, the equilibrium constant for the complex coming apart – came to 55.3 nM; the koff – broadly, the rate constant with which the complex falls apart – is 0.00068 s⁻¹; the kon – broadly, the rate constant with which the complex forms – worked out at 12300 M⁻¹ s⁻¹.
